Assay results reported in US20230346966A1.

Molecular target: recombinant human TfR1 (human) (UniProt P02786)
Experiment: SPR (Carterra LSA), IgG captured, TfR1 injected, 25 C

recombinant human TfR1 (human), sequence (P02786 89-760 limits assumed): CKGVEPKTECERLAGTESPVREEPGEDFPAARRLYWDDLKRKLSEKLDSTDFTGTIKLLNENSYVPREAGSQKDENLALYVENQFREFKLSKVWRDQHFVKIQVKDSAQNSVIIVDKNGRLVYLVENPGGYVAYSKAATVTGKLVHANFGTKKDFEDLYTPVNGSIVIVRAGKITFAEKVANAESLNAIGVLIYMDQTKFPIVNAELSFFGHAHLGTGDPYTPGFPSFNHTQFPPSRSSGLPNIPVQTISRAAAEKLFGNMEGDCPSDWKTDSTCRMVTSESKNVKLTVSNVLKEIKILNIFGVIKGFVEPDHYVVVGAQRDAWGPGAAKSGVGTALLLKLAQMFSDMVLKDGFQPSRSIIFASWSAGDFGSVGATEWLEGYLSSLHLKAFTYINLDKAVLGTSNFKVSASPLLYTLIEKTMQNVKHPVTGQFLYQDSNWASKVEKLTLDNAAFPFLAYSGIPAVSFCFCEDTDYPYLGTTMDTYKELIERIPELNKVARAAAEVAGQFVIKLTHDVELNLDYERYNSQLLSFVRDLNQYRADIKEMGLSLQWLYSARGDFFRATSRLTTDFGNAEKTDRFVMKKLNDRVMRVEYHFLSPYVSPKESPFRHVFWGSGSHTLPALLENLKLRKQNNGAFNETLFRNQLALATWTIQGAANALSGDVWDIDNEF

Kd: 0.536 nM
kon: 774000 M⁻¹ s⁻¹
Substance: OKT9 mIgG (control) (antibody)
